Assay [1] concerns the target PdxI (Aspergillus bombycis). In words: crystal structure.
The target in assay [2] is HpiI (Hymenoscyphus scutula). Put plainly: crystal structure.

For orientation: stoichiometry N means a count of units in the complex or per binding partner. In turn, PdxI (enzyme) had a stoichiometry N in assay [1] of 2.

In turn, HpiI (enzyme) had a stoichiometry N in assay [2] of 2.

(Values after PMC7534572.)
